This note sets out measurements from patent US20150344570A1 (published 2015).

To fix the notation:
T1: FcγRIIb extracellular domain with C-terminal His tag (human, UniProt P31994 43-217)
T1 construct: extracellular domain; also called FcgRIIb; 2b; not shown: His tag at the C terminus
T1 sequence (looked up): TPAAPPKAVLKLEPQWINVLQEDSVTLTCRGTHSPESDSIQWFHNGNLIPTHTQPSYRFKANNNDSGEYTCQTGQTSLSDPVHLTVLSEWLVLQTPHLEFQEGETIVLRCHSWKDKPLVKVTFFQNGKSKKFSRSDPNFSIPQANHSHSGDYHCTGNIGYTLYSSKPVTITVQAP

B1: GpH7-B3 variant K326_19Q/GpL16-k0 (antibody, human IgG1, kappa)
heavy: not shown
light: DIVMTQSPLSLPVTPGEPASISCQASESLVHSNRNTYLHWYLQKPGQSPQLLIYKVSNRFSGVPDRFSGSGSGTDFTLKISRVEAEDVGVYYCSQNTHVPPTFGQGTKVEIERTVAAPSVFIFPPSDEQLKSGTASVVCLLNNFYPREAKVQWKVDNALQSGNSQESVTEQDSKDSTYSLSSTLTLSKADYEKHKVYACEVTHQGLSSPVTKSFNRGEC
notes: also called Ho Ab K326_19Q
B2: GpH7-B3 variant K334_13S/GpL16-k0 (antibody, human IgG1, kappa)
heavy: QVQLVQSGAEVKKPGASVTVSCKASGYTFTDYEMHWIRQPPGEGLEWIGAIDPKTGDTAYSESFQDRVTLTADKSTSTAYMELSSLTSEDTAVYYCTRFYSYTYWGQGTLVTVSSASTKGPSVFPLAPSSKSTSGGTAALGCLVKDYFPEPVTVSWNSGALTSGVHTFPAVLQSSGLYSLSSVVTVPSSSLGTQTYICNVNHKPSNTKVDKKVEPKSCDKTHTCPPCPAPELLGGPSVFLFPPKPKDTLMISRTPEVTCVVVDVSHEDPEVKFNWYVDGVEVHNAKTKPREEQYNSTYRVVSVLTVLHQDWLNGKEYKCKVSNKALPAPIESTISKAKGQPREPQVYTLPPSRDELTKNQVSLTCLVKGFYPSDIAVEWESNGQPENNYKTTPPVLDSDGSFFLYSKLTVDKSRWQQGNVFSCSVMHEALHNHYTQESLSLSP
light: B1 light
notes: also called Ho Ab K334_13S
B3: GpH7-B3 variant K334_07I/GpL16-k0 (antibody, human IgG1, kappa)
heavy: not shown
light: B1 light
notes: also called Ho Ab K334_07I
B4: GpH7-B3 variant K334_10E/GpL16-k0 (antibody, human IgG1, kappa)
heavy: not shown
light: B1 light
notes: also called Ho Ab K334_10E
B5: GpH7-B3 variant K334_03V/GpL16-k0 (antibody, human IgG1, kappa)
heavy: not shown
light: B1 light
notes: also called Ho Ab K334_03V
B6: GpH7-B3 variant P238_04F/GpL16-k0 (antibody, human IgG1, kappa)
heavy: not shown
light: B1 light
notes: also called Ho Ab P238_04F
B7: GpH7-B3 variant V266_06M/GpL16-k0 (antibody, human IgG1, kappa)
heavy: not shown
light: B1 light
notes: also called Ho Ab V266_06M
B8: GpH7-B3 variant K334_05P/GpL16-k0 (antibody, human IgG1, kappa)
heavy: not shown
light: B1 light
notes: also called Ho Ab K334_05P
B9: GpH7-B3 variant L328_13S/GpL16-k0 (antibody, human IgG1, kappa)
heavy: not shown
light: B1 light
notes: also called Ho Ab L328_13S
B10: GpH7-B3 variant P238_15Y/GpL16-k0 (antibody, human IgG1, kappa)
heavy: not shown
light: B1 light
notes: also called Ho Ab P238_15Y
B11: GpH7-B3 variant S337_16H/GpL16-k0 (antibody, human IgG1, kappa)
heavy: not shown
light: B1 light
notes: also called Ho Ab S337_16H
B12: GpH7-B3 variant S267_19Q/GpL16-k0 (antibody, human IgG1, kappa)
heavy: not shown
light: B1 light
notes: also called Ho Ab S267_19Q
B13: GpH7-B3 variant S267_06M/GpL16-k0 (antibody, human IgG1, kappa)
heavy: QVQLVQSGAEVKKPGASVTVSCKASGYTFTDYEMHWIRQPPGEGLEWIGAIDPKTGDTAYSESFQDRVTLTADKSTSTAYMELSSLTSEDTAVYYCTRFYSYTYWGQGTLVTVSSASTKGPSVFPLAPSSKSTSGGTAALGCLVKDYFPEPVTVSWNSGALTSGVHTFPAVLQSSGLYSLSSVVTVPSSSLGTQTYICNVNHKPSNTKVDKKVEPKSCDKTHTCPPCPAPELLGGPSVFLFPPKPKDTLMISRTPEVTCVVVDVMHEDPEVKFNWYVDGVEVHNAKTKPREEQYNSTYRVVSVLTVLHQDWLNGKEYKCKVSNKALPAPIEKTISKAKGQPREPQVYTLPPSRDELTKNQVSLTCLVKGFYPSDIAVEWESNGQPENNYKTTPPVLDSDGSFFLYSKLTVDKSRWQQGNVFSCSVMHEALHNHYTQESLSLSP
light: B1 light
notes: also called Ho Ab S267_06M
B14: GpH7-B3 variant P331_15Y/GpL16-k0 (antibody, human IgG1, kappa)
heavy: not shown
light: B1 light
notes: also called Ho Ab P331_15Y
B15: GpH7-B3 variant T335_15Y/GpL16-k0 (antibody, human IgG1, kappa)
heavy: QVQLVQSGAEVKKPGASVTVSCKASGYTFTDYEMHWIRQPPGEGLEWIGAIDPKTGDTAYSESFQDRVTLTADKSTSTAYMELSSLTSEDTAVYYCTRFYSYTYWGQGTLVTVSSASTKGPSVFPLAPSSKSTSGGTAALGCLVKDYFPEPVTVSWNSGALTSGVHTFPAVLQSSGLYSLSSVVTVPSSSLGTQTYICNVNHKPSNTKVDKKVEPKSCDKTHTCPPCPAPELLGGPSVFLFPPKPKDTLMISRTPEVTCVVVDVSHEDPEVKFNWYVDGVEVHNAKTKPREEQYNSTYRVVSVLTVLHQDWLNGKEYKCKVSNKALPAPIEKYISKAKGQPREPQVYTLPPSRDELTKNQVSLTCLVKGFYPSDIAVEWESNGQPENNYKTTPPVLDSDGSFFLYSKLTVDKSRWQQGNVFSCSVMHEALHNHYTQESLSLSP
light: B1 light
notes: also called Ho Ab T335_15Y
B16: GpH7-B3 variant L235_20W/GpL16-k0 (antibody, human IgG1, kappa)
heavy: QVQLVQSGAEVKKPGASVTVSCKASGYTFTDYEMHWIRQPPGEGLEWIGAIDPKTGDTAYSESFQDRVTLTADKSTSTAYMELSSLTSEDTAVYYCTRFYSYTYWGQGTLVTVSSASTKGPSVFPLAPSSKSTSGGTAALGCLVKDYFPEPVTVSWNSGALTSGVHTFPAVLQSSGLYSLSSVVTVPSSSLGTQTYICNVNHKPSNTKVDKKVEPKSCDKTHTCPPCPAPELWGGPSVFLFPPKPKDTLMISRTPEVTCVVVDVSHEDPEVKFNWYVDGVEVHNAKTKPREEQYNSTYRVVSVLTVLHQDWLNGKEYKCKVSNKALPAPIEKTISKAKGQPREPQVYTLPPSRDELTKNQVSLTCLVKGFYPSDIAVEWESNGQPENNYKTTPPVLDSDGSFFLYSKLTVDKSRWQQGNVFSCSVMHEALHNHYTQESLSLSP
light: B1 light
notes: also called Ho Ab L235_20W
B17: GpH7-B3 variant Y296_20W/GpL16-k0 (antibody, human IgG1, kappa)
heavy: not shown
light: B1 light
notes: also called Ho Ab Y296_20W
B18: GpH7-B3 variant T335_10E/GpL16-k0 (antibody, human IgG1, kappa)
heavy: not shown
light: B1 light
notes: also called Ho Ab T335_10E
B19: GpH7-B3 variant S239_10E/GpL16-k0 (antibody, human IgG1, kappa)
heavy: not shown
light: B1 light
notes: also called Ho Ab S239_10E
B20: GpH7-B3 variant K334_14T/GpL16-k0 (antibody, human IgG1, kappa)
heavy: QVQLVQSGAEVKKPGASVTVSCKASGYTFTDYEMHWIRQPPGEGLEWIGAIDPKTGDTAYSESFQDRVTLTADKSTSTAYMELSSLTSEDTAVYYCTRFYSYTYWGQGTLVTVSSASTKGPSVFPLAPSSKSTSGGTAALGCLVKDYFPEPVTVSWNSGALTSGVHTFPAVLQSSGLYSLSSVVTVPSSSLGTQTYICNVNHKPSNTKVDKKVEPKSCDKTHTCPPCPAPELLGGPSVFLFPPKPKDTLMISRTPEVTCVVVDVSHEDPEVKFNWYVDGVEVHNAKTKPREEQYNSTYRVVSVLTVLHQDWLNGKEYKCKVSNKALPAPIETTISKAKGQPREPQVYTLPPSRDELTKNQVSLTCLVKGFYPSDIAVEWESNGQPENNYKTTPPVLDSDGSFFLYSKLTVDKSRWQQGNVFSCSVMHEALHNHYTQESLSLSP
light: B1 light
notes: also called Ho Ab K334_14T
B21: GpH7-B3 variant K334_08L/GpL16-k0 (antibody, human IgG1, kappa)
heavy: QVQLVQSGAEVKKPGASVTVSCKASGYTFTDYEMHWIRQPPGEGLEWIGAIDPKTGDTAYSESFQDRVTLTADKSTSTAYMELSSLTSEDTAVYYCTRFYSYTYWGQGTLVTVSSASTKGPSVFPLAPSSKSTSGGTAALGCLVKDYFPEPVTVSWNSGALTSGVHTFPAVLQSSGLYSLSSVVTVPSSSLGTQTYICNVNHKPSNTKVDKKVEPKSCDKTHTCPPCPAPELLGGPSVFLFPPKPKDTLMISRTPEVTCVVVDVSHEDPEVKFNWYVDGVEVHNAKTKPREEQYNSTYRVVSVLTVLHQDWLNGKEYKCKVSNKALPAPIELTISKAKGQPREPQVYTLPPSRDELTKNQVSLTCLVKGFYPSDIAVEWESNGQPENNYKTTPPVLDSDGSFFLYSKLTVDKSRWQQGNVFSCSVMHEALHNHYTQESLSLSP
light: B1 light
notes: also called Ho Ab K334_08L
B22: GpH7-B3 variant L328_02A/GpL16-k0 (antibody, human IgG1, kappa)
heavy: not shown
light: B1 light
notes: also called Ho Ab L328_02A
B23: GpH7-B3 variant T335_07I/GpL16-k0 (antibody, human IgG1, kappa)
heavy: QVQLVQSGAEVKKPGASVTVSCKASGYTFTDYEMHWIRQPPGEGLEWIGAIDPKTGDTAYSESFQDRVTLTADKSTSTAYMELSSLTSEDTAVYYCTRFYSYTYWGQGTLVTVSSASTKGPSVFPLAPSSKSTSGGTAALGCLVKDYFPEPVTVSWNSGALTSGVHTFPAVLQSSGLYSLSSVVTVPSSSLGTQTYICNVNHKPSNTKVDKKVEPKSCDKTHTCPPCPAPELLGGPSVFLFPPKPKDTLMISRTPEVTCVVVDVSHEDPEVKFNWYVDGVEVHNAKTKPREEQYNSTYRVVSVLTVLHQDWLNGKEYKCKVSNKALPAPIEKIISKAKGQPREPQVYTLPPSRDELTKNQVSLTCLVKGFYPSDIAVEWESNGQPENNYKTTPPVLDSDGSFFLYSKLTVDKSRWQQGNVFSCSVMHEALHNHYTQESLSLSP
light: B1 light
notes: also called Ho Ab T335_07I
B24: GpH7-B3 variant K326_20W/GpL16-k0 (antibody, human IgG1, kappa)
heavy: not shown
light: B1 light
notes: also called Ho Ab K326_20W
B25: GpH7-B3 variant P331_16H/GpL16-k0 (antibody, human IgG1, kappa)
heavy: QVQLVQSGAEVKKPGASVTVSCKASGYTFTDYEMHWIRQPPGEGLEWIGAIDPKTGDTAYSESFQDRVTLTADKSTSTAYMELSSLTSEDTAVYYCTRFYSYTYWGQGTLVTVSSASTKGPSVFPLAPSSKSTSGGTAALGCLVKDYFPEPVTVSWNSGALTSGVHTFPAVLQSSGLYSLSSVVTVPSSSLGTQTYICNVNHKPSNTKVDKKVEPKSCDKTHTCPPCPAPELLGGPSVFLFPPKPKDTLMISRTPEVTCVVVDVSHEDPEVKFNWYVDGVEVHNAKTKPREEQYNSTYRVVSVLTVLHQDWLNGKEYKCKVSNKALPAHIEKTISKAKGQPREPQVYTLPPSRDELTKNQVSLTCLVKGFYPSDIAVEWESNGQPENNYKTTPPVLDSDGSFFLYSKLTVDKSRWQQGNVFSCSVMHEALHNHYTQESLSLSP
light: B1 light
notes: also called Ho Ab P331_16H
B26: GpH7-B3 variant K334_02A/GpL16-k0 (antibody, human IgG1, kappa)
heavy: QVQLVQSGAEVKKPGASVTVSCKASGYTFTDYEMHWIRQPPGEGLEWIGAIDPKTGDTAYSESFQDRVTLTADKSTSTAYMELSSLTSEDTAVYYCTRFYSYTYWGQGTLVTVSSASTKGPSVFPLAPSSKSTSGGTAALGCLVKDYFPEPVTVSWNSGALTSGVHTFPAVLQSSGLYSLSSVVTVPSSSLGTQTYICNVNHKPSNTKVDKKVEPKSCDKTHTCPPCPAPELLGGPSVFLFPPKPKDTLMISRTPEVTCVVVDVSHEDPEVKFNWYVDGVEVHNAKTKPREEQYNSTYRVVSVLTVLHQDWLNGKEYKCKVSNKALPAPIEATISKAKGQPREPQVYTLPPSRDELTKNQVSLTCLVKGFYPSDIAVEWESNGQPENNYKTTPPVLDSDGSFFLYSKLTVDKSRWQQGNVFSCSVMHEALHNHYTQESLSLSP
light: B1 light
notes: also called Ho Ab K334_02A
B27: GpH7-B3 variant S239_03V/GpL16-k0 (antibody, human IgG1, kappa)
heavy: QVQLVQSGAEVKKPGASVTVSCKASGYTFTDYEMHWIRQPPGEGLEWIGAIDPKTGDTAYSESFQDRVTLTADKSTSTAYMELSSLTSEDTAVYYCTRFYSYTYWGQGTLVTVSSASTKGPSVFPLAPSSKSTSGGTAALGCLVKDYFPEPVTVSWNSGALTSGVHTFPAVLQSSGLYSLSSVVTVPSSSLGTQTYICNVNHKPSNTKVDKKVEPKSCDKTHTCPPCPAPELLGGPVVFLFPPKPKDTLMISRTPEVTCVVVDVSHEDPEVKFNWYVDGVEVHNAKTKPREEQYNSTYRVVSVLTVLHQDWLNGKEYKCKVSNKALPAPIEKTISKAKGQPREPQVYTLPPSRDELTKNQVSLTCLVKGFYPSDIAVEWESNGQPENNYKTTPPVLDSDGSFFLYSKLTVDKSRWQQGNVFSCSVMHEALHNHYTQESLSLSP
light: B1 light
notes: also called Ho Ab S239_03V
B28: GpH7-B3 variant K334_04F/GpL16-k0 (antibody, human IgG1, kappa)
heavy: not shown
light: B1 light
notes: also called Ho Ab K334_04F
B29: GpH7-B3 variant S324_06M/GpL16-k0 (antibody, human IgG1, kappa)
heavy: not shown
light: B1 light
notes: also called Ho Ab S324_06M
B30: GpH7-B3 variant P238_09D/GpL16-k0 (antibody, human IgG1, kappa)
heavy: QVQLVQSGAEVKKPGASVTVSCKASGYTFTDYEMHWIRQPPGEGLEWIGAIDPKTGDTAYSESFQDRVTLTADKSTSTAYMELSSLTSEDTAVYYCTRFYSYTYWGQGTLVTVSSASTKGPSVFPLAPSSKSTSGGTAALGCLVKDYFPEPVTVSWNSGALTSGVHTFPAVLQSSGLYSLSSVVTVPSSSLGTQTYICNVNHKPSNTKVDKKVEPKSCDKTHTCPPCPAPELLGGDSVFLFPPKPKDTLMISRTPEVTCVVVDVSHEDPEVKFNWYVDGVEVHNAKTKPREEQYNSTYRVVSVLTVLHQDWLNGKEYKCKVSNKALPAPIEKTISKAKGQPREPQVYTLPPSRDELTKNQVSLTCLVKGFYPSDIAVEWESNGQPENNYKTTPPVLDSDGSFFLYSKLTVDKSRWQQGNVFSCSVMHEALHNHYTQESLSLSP
light: B1 light
notes: also called Ho Ab P238_09D
B31: GpH7-B3 variant P331_20W/GpL16-k0 (antibody, human IgG1, kappa)
heavy: not shown
light: B1 light
notes: also called Ho Ab P331_20W
B32: GpH7-A5/GpH7-B3 variant K326_07I/GpL16-k0 (antibody, human IgG1, kappa)
heavy 1: not shown
heavy 2: not shown
light: B1 light
notes: also called He Ab K326_07I
B33: GpH7-A5/GpH7-B3 variant G237_04F/GpL16-k0 (antibody, human IgG1, kappa)
heavy 1: not shown
heavy 2: not shown
light: B1 light
notes: also called He Ab G237_04F
B34: GpH7-A5/GpH7-B3 variant A330_01G/GpL16-k0 (antibody, human IgG1, kappa)
heavy 1: not shown
heavy 2: not shown
light: B1 light
notes: also called He Ab A330_01G
B35: GpH7-A5/GpH7-B3 variant G236_09D/GpL16-k0 (antibody, human IgG1, kappa)
heavy 1: not shown
heavy 2: not shown
light: B1 light
notes: also called He Ab G236_09D
B36: GpH7-A5/GpH7-B3 variant G237_20W/GpL16-k0 (antibody, human IgG1, kappa)
heavy 1: not shown
heavy 2: not shown
light: B1 light
notes: also called He Ab G237_20W
B37: GpH7-A5/GpH7-B3 variant H268_01G/GpL16-k0 (antibody, human IgG1, kappa)
heavy 1: not shown
heavy 2: not shown
light: B1 light
notes: also called He Ab H268_01G
B38: GpH7-A5/GpH7-B3 variant A327_09D/GpL16-k0 (antibody, human IgG1, kappa)
heavy 1: not shown
heavy 2: not shown
light: B1 light
notes: also called He Ab A327_09D
B39: GpH7-A5/GpH7-B3 variant A327_10E/GpL16-k0 (antibody, human IgG1, kappa)
heavy 1: not shown
heavy 2: not shown
light: B1 light
notes: also called He Ab A327_10E
B40: GpH7-A5/GpH7-B3 variant G236_10E/GpL16-k0 (antibody, human IgG1, kappa)
heavy 1: not shown
heavy 2: not shown
light: B1 light
notes: also called He Ab G236_10E

For one assay, the target named is T1, FcγRIIb extracellular domain with …. The experiment in a line: SPR, relative binding, HoCon Ab = 100. Background: Surface plasmon resonance follows binding to a sensor surface in real time, without labels.
With B1, the Ho/Con_2b is 163 % of control.

On to B2, for which the Ho/Con_2b is 117 % of control.

Regarding B3, the Ho/Con_2b was 137 % of control.

In the case of B4, the Ho/Con_2b is 129 % of control.

Consider B5, for which the Ho/Con_2b was 145 % of control.

For B6, the Ho/Con_2b is 209 % of control.

Regarding B7, the Ho/Con_2b is 231 % of control.

In the case of B8, the Ho/Con_2b is 112 % of control.

Regarding B9, the Ho/Con_2b was 147 % of control.

Take B10: the Ho/Con_2b is 114 % of control.

In the case of B11, the Ho/Con_2b is 103 % of control.

For B12, the Ho/Con_2b was 185 % of control.

Consider B13, for which the Ho/Con_2b is 187 % of control.

With B14, the Ho/Con_2b is 111 % of control.

Turning to B15, the Ho/Con_2b was 104 % of control.

Turning to B16, the Ho/Con_2b is 116 % of control.

For the molecule B17, the Ho/Con_2b was 103 % of control.

Take B18: the Ho/Con_2b was 108 % of control.

As to B19, the Ho/Con_2b is 175 % of control.

Regarding B20, the Ho/Con_2b was 138 % of control.

As for B21, the Ho/Con_2b was 114 % of control.

For B22, the Ho/Con_2b is 117 % of control.

On to B23, for which the Ho/Con_2b was 104 % of control.

For B24, the Ho/Con_2b is 132 % of control.

Turning to B25, the Ho/Con_2b was 100 % of control.

On to B26, for which the Ho/Con_2b is 110 % of control.

Turning to B27, the Ho/Con_2b was 108 % of control.

Consider B28, for which the Ho/Con_2b is 115 % of control.

With B29, the Ho/Con_2b is 104 % of control.

Consider B30, for which the Ho/Con_2b was 207 % of control.

For B31, the Ho/Con_2b was 111 % of control.

The next assay has the same target. The assay can be described thus: SPR, relative binding, HeCon Ab = 100. On the procedure: Analysis of interaction between objective antibody and the FcγR was carried out using Biacore T100 (GE Healthcare). HBS-EP+ (GE Healthcare) was used as the running buffer, and the measurement temperature was set to 25° C. Chips produced by immobilizing the antigen peptide by the amine coupling method to a Series S Sencor Chip CM5 (GE Healthcare), or alternatively, chips produced by allowing preliminarily biotinylated antigen peptides to interact with and immobilize onto a Series S Sensor Chip SA (certified) (GE Healthcare) were used. Antibodies of interest were captured onto an antigen peptide-immobilized chip, and allowed to interact to each FcγR diluted with running buffer. To regenerate and repeatedly use the chip, the antibodies captured on the chip were washed off by reacting 10 mM glycine-HCl, pH 1.5.
B32: the He/Con_2b is 199 % of control.

Regarding B33, the He/Con_2b was 149 % of control.

Take B34: the He/Con_2b is 104 % of control.

B35: the He/Con_2b is 167 % of control.

B36: the He/Con_2b was 193 % of control.

Consider B37, for which the He/Con_2b is 144 % of control.

Take B38: the He/Con_2b was 172 % of control.

On to B39, for which the He/Con_2b was 140 % of control.

Take B40: the He/Con_2b was 110 % of control.
